Tests used:
Experiment in all cases: cell-based or functional assay
[1] = target: HIV-1 Env of pseudovirus 0815.v3.c3 (clade ACD) (HIV-1)
[2] = target: HIV-1 Env of pseudovirus 231965.c01 (clade D) (HIV-1)
[3] = target: HIV-1 Env of pseudovirus 231966.c02 (clade D) (HIV-1)
[4] = target: HIV-1 Env of pseudovirus 3016.v5.c45 (clade D) (HIV-1)
[5] = target: HIV-1 Env of pseudovirus 3103.v3.c10 (clade ACD) (HIV-1)
[6] = target: HIV-1 Env of pseudovirus 3301.v1.c24 (clade AC) (HIV-1)
[7] = target: HIV-1 Env of pseudovirus 3415.v1.c1 (HIV-1)
[8] = target: HIV-1 Env of pseudovirus 3817.v2.c59 (clade CD) (HIV-1)
[9] = target: HIV-1 Env of pseudovirus 6041.v3.c23 (clade AC) (HIV-1)
[10] = target: HIV-1 Env of pseudovirus 6240_08_TA5_4622 (HIV-1)
[11] = target: HIV-1 Env of pseudovirus 6480.v4.c25 (clade CD) (HIV-1)
[12] = target: HIV-1 Env of pseudovirus 6540.v4.c1 (clade AC) (HIV-1)
[13] = target: HIV-1 Env of pseudovirus 6545.v4.c1 (clade AC) (HIV-1)
[14] = target: HIV-1 Env of pseudovirus 6811.v7.c18 (clade CD) (HIV-1)
[15] = target: HIV-1 Env of pseudovirus 6952.v1.c20 (clade CD) (HIV-1)
[16] = target: HIV-1 Env of pseudovirus 89-F1_2_25 (clade CD) (HIV-1)
[17] = target: HIV-1 Env of pseudovirus 9004SS_A3_4 (HIV-1)
[18] = target: HIV-1 Env of pseudovirus A07412M1.vrc12 (clade D) (HIV-1)
[19] = target: HIV-1 Env of pseudovirus C4118.c09 (HIV-1)
[20] = target: HIV-1 Env of pseudovirus CNE20 (HIV-1)
[21] = target: HIV-1 Env of pseudovirus HIV-001428-2.42 (HIV-1)
[22] = target: HIV-1 Env of pseudovirus P1981_C5_3 (clade G) (HIV-1)
[23] = target: HIV-1 Env of pseudovirus T257-31 (HIV-1)
[24] = target: HIV-1 Env of pseudovirus X1632_S2_B10 (clade G) (HIV-1)
[25] = target: HIV-1 Env of pseudovirus X2131_C1_B5 (clade G) (HIV-1)

N49P7 (antibody) was tested, and the IC50, neutralization titer in TZM.bl cells [1] was 0.016 µg/mL, the IC80, neutralization titer in TZM.bl cells [1] was 0.053 µg/mL and the MPI, neutralization in TZM.bl cells [1] was 100. It also gave an IC50, neutralization titer in TZM.bl cells [2] of 0.054 µg/mL, an IC80, neutralization titer in TZM.bl cells [2] of 0.193 µg/mL and an MPI, neutralization in TZM.bl cells [2] of 100. It also gave an IC50, neutralization titer in TZM.bl cells [3] of 0.102 µg/mL, an IC80, neutralization titer in TZM.bl cells [3] of 0.43 µg/mL and an MPI, neutralization in TZM.bl cells [3] of 100. The IC50, neutralization titer in TZM.bl cells [4] was 0.221 µg/mL, the IC80, neutralization titer in TZM.bl cells [4] was 1.04 µg/mL and the MPI, neutralization in TZM.bl cells [4] was 100. The IC50, neutralization titer in TZM.bl cells [5] was 0.158 µg/mL, the IC80, neutralization titer in TZM.bl cells [5] was 0.509 µg/mL and the MPI, neutralization in TZM.bl cells [5] was 100. The IC50, neutralization titer in TZM.bl cells [6] was 0.025 µg/mL, the IC80, neutralization titer in TZM.bl cells [6] was 0.069 µg/mL and the MPI, neutralization in TZM.bl cells [6] was 100. It also gave a neutralization IC50 [7] of 0.16 µg/mL, a neutralization IC80 [7] of 0.55 µg/mL and a neutralization MPI [7] of 100. For the same substance, the IC50, neutralization titer in TZM.bl cells [8] was 0.716 µg/mL, the IC80, neutralization titer in TZM.bl cells [8] was 3.73 µg/mL and the MPI, neutralization in TZM.bl cells [8] was 99. The IC50, neutralization titer in TZM.bl cells [9] was 0.047 µg/mL, the IC80, neutralization titer in TZM.bl cells [9] was 0.222 µg/mL and the MPI, neutralization in TZM.bl cells [9] was 100. The neutralization IC50 [10] was 0.457 µg/mL, the neutralization IC80 [10] was 1.73 µg/mL and the neutralization MPI [10] was 100. The IC50, neutralization titer in TZM.bl cells [11] was 0.031 µg/mL, the IC80, neutralization titer in TZM.bl cells [11] was 0.113 µg/mL and the MPI, neutralization in TZM.bl cells [11] was 100. It also gave an IC50, neutralization titer in TZM.bl cells [12] of 11.7 µg/mL, an IC80, neutralization titer in TZM.bl cells [12] of 33.2 µg/mL and an MPI, neutralization in TZM.bl cells [12] of 92. For the same substance, the IC50, neutralization titer in TZM.bl cells [13] was 2 µg/mL, the IC80, neutralization titer in TZM.bl cells [13] was 14.7 µg/mL and the MPI, neutralization in TZM.bl cells [13] was 96. It also gave an IC50, neutralization titer in TZM.bl cells [14] of 0.229 µg/mL, an IC80, neutralization titer in TZM.bl cells [14] of 0.992 µg/mL and an MPI, neutralization in TZM.bl cells [14] of 100. The IC50, neutralization titer in TZM.bl cells [15] was 18.4 µg/mL, the IC80, neutralization titer in TZM.bl cells [15] was 38.9 µg/mL and the MPI, neutralization in TZM.bl cells [15] was 91. It also gave an IC50, neutralization titer in TZM.bl cells [16] of 21.6 µg/mL, an IC80, neutralization titer in TZM.bl cells [16] of over 50 µg/mL and an MPI, neutralization in TZM.bl cells [16] of 80. For the same substance, the neutralization IC50 [17] was 0.125 µg/mL, the neutralization IC80 [17] was 0.39 µg/mL and the neutralization MPI [17] was 100. It also gave an IC50, neutralization titer in TZM.bl cells [18] of 0.108 µg/mL, an IC80, neutralization titer in TZM.bl cells [18] of 0.645 µg/mL and an MPI, neutralization in TZM.bl cells [18] of 100. For the same substance, the neutralization IC50 [19] was 0.043 µg/mL, the neutralization IC80 [19] was 0.147 µg/mL and the neutralization MPI [19] was 100. It also gave a neutralization IC50 [20] of 0.028 µg/mL, a neutralization IC80 [20] of 0.1 µg/mL and a neutralization MPI [20] of 100. The neutralization IC50 [21] was 0.006 µg/mL, the neutralization IC80 [21] was 0.02 µg/mL and the neutralization MPI [21] was 100. The IC50, neutralization titer in TZM.bl cells [22] was 0.113 µg/mL, the IC80, neutralization titer in TZM.bl cells [22] was 0.274 µg/mL and the MPI, neutralization in TZM.bl cells [22] was 100. It also gave a neutralization IC50 [23] of 0.158 µg/mL, a neutralization IC80 [23] of 0.619 µg/mL and a neutralization MPI [23] of 100. The IC50, neutralization titer in TZM.bl cells [24] was 12 µg/mL, the IC80, neutralization titer in TZM.bl cells [24] was 40.4 µg/mL and the MPI, neutralization in TZM.bl cells [24] was 85. The IC50, neutralization titer in TZM.bl cells [25] was 0.081 µg/mL, the IC80, neutralization titer in TZM.bl cells [25] was 0.273 µg/mL and the MPI, neutralization in TZM.bl cells [25] was 100.

Substance N49P7.1 (antibody) has an IC50, neutralization titer in TZM.bl cells [1] of 0.023 µg/mL, an IC80, neutralization titer in TZM.bl cells [1] of 0.064 µg/mL and an MPI, neutralization in TZM.bl cells [1] of 100. For the same substance, the IC50, neutralization titer in TZM.bl cells [2] was 0.106 µg/mL, the IC80, neutralization titer in TZM.bl cells [2] was 0.364 µg/mL and the MPI, neutralization in TZM.bl cells [2] was 100. It also gave an IC50, neutralization titer in TZM.bl cells [3] of 0.203 µg/mL, an IC80, neutralization titer in TZM.bl cells [3] of 0.705 µg/mL and an MPI, neutralization in TZM.bl cells [3] of 100. The IC50, neutralization titer in TZM.bl cells [4] was 0.559 µg/mL, the IC80, neutralization titer in TZM.bl cells [4] was 2.54 µg/mL and the MPI, neutralization in TZM.bl cells [4] was 100. For the same substance, the IC50, neutralization titer in TZM.bl cells [5] was 0.229 µg/mL, the IC80, neutralization titer in TZM.bl cells [5] was 0.772 µg/mL and the MPI, neutralization in TZM.bl cells [5] was 100. For the same substance, the IC50, neutralization titer in TZM.bl cells [6] was 0.041 µg/mL, the IC80, neutralization titer in TZM.bl cells [6] was 0.111 µg/mL and the MPI, neutralization in TZM.bl cells [6] was 100. For the same substance, the neutralization IC50 [7] was 0.191 µg/mL, the neutralization IC80 [7] was 0.647 µg/mL and the neutralization MPI [7] was 100. For the same substance, the IC50, neutralization titer in TZM.bl cells [8] was 1.48 µg/mL, the IC80, neutralization titer in TZM.bl cells [8] was 8.36 µg/mL and the MPI, neutralization in TZM.bl cells [8] was 97. The IC50, neutralization titer in TZM.bl cells [9] was 0.078 µg/mL, the IC80, neutralization titer in TZM.bl cells [9] was 0.366 µg/mL and the MPI, neutralization in TZM.bl cells [9] was 100. For the same substance, the neutralization IC50 [10] was 0.509 µg/mL, the neutralization IC80 [10] was 1.95 µg/mL and the neutralization MPI [10] was 100. The IC50, neutralization titer in TZM.bl cells [11] was 0.056 µg/mL, the IC80, neutralization titer in TZM.bl cells [11] was 0.192 µg/mL and the MPI, neutralization in TZM.bl cells [11] was 100. It also gave an IC50, neutralization titer in TZM.bl cells [12] of 14.7 µg/mL, an IC80, neutralization titer in TZM.bl cells [12] of over 50 µg/mL and an MPI, neutralization in TZM.bl cells [12] of 75. It also gave an IC50, neutralization titer in TZM.bl cells [13] of 1.15 µg/mL, an IC80, neutralization titer in TZM.bl cells [13] of 16 µg/mL and an MPI, neutralization in TZM.bl cells [13] of 92. For the same substance, the IC50, neutralization titer in TZM.bl cells [14] was 0.321 µg/mL, the IC80, neutralization titer in TZM.bl cells [14] was 1.46 µg/mL and the MPI, neutralization in TZM.bl cells [14] was 100. The IC50, neutralization titer in TZM.bl cells [15] was 26.3 µg/mL, the IC80, neutralization titer in TZM.bl cells [15] was over 50 µg/mL and the MPI, neutralization in TZM.bl cells [15] was 71. It also gave an IC50, neutralization titer in TZM.bl cells [16] of 41.6 µg/mL, an IC80, neutralization titer in TZM.bl cells [16] of over 50 µg/mL and an MPI, neutralization in TZM.bl cells [16] of 58. The neutralization IC50 [17] was 0.221 µg/mL, the neutralization IC80 [17] was 0.841 µg/mL and the neutralization MPI [17] was 100. For the same substance, the IC50, neutralization titer in TZM.bl cells [18] was 0.232 µg/mL, the IC80, neutralization titer in TZM.bl cells [18] was 1.07 µg/mL and the MPI, neutralization in TZM.bl cells [18] was 100. For the same substance, the neutralization IC50 [19] was 0.048 µg/mL, the neutralization IC80 [19] was 0.216 µg/mL and the neutralization MPI [19] was 100. The neutralization IC50 [20] was 0.079 µg/mL, the neutralization IC80 [20] was 0.224 µg/mL and the neutralization MPI [20] was 100. For the same substance, the neutralization IC50 [21] was 0.009 µg/mL, the neutralization IC80 [21] was 0.029 µg/mL and the neutralization MPI [21] was 100. It also gave an IC50, neutralization titer in TZM.bl cells [22] of 0.216 µg/mL, an IC80, neutralization titer in TZM.bl cells [22] of 0.494 µg/mL and an MPI, neutralization in TZM.bl cells [22] of 100. It also gave a neutralization IC50 [23] of 0.209 µg/mL, a neutralization IC80 [23] of 1.04 µg/mL and a neutralization MPI [23] of 100. The IC50, neutralization titer in TZM.bl cells [24] was 17.9 µg/mL, the IC80, neutralization titer in TZM.bl cells [24] was over 50 µg/mL and the MPI, neutralization in TZM.bl cells [24] was 65. The IC50, neutralization titer in TZM.bl cells [25] was 0.129 µg/mL, the IC80, neutralization titer in TZM.bl cells [25] was 0.431 µg/mL and the MPI, neutralization in TZM.bl cells [25] was 100.

Source: patent US20230002480A1
